Here are results for one molecule from patent US7482138 (TRUSTEES OF COLUMBIA UNIVERSITY IN THE CITY OF NEW YORK, dated 2009).

In this test the target is Rac1V12, pre-loaded with [γ-32P] GTP (UniProt P63000 1-192). The test can be described thus: overlay assay, immobilised Myc-tagged kinase probed with [γ-32P] GTP-loaded GTPase. From the text:
PAK4 and PAK5 interact with activated Rac and Cdc42. 293 cells were transfected with equal amounts of expression vectors, encoding the following Myc-tagged proteins: wild type PAK4 (Myc-PAK4), wild type PAK5 (Myc-PAK5), or PAK5ΔGBD. After transient expression, the Myc-tagged proteins were immunoprecipitated from whole cell lysates using a mouse anti-Myc antibody and protein A sepharose. The immunocomplexes were separated by SDS-PAGE and transferred to a PVDF membrane. The membranes were then probed with purified RhoV14, Rac1V12 or Cdc42V12, as indicated. The GTPases were pre-loaded with [γ-^32P] GTP as described in the Materials and Methods. A portion of the lysate was used for Western blot analysis (WB) with an anti-Myc antibody to measure the amount of each transfected protein in the lysates.
The overlay assay is described in (27). Briefly, 293 cells were transfected with 10 µg of empty vector, MycPAK4, or Myc-PAK5. PAK4 and PAK5 were then immunopurified using anti-Myc antibody (9E10, Santa Cruz) and the immunopurified proteins were separated on SDS-PAGE and transferred to a PVDF membrane. The membrane was then washed and blocked with phosphate-buffered saline (PBS) containing 1% bovine serum albumin (BSA) and 100 mM dithiothreitol (DTT). Recombinant GTPases (2 µg) were pre-loaded with [γ-^32P] GTP and were incubated for 5 min with the PVDF membrane. […]

B1: Myc-tagged wild type PAK5 (human p21-activated kinase 5) (enzyme, not shown: small tags and cut ends)
chain: MFGKKKKKIEISGPSNFEHRVHTGFDPQEQKFTGLPQQWHSLLADTANRPKPMVDPSCITPIQLAPMKTIVRGNKPCKETSINGLLEDFDNISVTRSNSLRKESPPTPDQGASSHGPGHAEENGFITFSQYSSESDTTADYTTEKYREKSLYGDDLDPYYRGSHAAKQNGHVMKMKHGEAYYSEVKPLKSDFARFSADYHSHLDSLSKPSEYSDLKWEYQRASSSSPLDYSFQFTPSRTAGTSGCSKESLAYSESEWGPSLDDYDRRPKSSYLNQTSPQPTMRQRSRSGSGLQEPMMPFGASAFKTHPQGHSYNSYTYPRLSEPTMCIPKVDYDRAQMVLSPPLSGSDTYPRGPAKLPQSQSKSGYSSSSHQYPSGYHKATLYHHPSLQSSSQYISTASYLSSLSLSSSTYPPPSWGSSSDQQPSRVSHEQFRAALQLVVSPGDPREYLANFIKIGEGSTGIVCIATEKHTGKQVAVKKMDLRKQQRRELLFNEVVIMRDYHHDNVVDMYSSYLVGDELWVVMEFLEGGALTDIVTHTRMNEEQIATVCLSVLRALSYLHNQGVIHRDIKSDSILLTSDGRIKLSDFGFCAQVSKEVPKRKSLVGTPYWMAPEVISRLPYGTEVDIWSLGIMVIEMIDGEPPYFNEPPLQAMRRIRDSLPPRVKDLHKVSSVLRGFLDLMLVREPSQRATAQELLGHPFLKLAGPPSCIVPLMRQYRHH
notes: also called Myc-PAK5
Turning to B1, the binding result is on record as “binds”.
